The experiment deals with HEK293FT cells transfected with TF library. Nature of the experiment: Screening of TF condensates based on fluorescent puncta. In kind it is cell-based. The settings on record: Figure 1B numerical data; TF library screen, one value per transcriptional factor. The procedure, abridged: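 Puncta scoring used automated confocal imaging of fifty random fields per well, after anti-Flag or anti-GAL4 immunofluorescence (Alexa 488) in PFA-fixed cells. HEK293FT cells carried TF library plasmids delivered with PEI (1.6 μg/ml DNA). At 60 h they were switched for 12 h to glucose-containing or glucose-free medium.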

B1: ASCL2 (protein, UniProt Q99929 1-193, looked up)
Achaete-scute homolog 2: MDGGTLPRSAPPAPPVPVGCAARRRPASPELLRCSRRRRPATAETGGGAAAVARRNERERNRVKLVNLGFQALRQHVPHGGASKKLSKVETLRSAVEYIRALQRLLAEHDAVRNALAGGLRPQAVRPSAPRGPPGTTPVAASPSRASSSPGRGGSSEPGSPRSAYSSDDSGCEGALSPAERELLDFSSWLGGY
Take B1: the “Z score of condensed fraction” value amounted to 0.864.

B2: MEF2A (protein, UniProt Q02078 1-507, looked up)
Myocyte-specific enhancer …: MGRKKIQITRIMDERNRQVTFTKRKFGLMKKAYELSVLCDCEIALIIFNSSNKLFQYASTDMDKVLLKYTEYNEPHESRTNSDIVEALNKKEHRGCDSPDPDTSYVLTPHTEEKYKKINEEFDNMMRNHKIAPGLPPQNFSMSVTVPVTSPNALSYTNPGSSLVSPSLAASSTLTDSSMLSPPQTTLHRNVSPGAPQRPPSTGNAGGMLSTTDLTVPNGAGSSPVGNGFVNSRASPNLIGATGANSLGKVMPTKSPPPPGGGNLGMNSRKPDLRVVIPPSSKGMMPPLSEEEELELNTQRISSSQATQPLATPVVSVTTPSLPPQGLVYSAMPTAYNTDYSLTSADLSALQGFNSPGMLSLGQVSAWQQHHLGQAALSSLVAGGQLSQGSNLSINTNQNISIKSEPISPPRDRMTPSGFQQQQQQQQQQQPPPPPQPQPQPPQPQPRQEMGRSPVDSLSSSSSSYDGSDREDPRGDFHSPIVLGRPPNTEDRESPSVKRMRMDAWVT
For B2, the “Z score of condensed fraction” value is -0.6589.

B3: LMX1B (protein, UniProt O60663 1-402, looked up)
LIM homeobox transcription …: MDIATGPESLERCFPRGQTDCAKMLDGIKMEEHALRPGPATLGVLLGSDCPHPAVCEGCQRPISDRFLMRVNESSWHEECLQCAACQQALTTSCYFRDRKLYCKQDYQQLFAAKCSGCMEKIAPTEFVMRALECVYHLGCFCCCVCERQLRKGDEFVLKEGQLLCKGDYEKEKDLLSSVSPDESDSVKSEDEDGDMKPAKGQGSQSKGSGDDGKDPRRPKRPRTILTTQQRRAFKASFEVSSKPCRKVRETLAAETGLSVRVVQVWFQNQRAKMKKLARRHQQQQEQQNSQRLGQEVLSSRMEGMMASYTPLAPPQQQIVAMEQSPYGSSDPFQQGLTPPQMPGDHMNPYGNDSIFHDIDSDTSLTSLSDCFLGSSDVGSLQARVGNPIDRLYSMQSSYFAS
Take B3: the “Z score of condensed fraction” value is reported as 0.1118.

B4: MBLR (protein, UniProt Q9BYE7 1-350, looked up)
Polycomb group RING finger …: MEGVAVVTAGSVGAAKTEGAAALPPPPPVSPPALTPAPAAGEEGPAPLSETGAPGCSGSRPPELEPERSLGRFRGRFEDEDEELEEEEELEEEEEEEEEDMSHFSLRLEGGRQDSEDEEERLINLSELTPYILCSICKGYLIDATTITECLHTFCKSCIVRHFYYSNRCPKCNIVVHQTQPLYNIRLDRQLQDIVYKLVINLEEREKKQMHDFYKERGLEVPKPAVPQPVPSSKGRSKKVLESVFRIPPELDMSLLLEFIGANEGTGHFKPLEKKFVRVSGEATIGHVEKFLRRKMGLDPACQVDIICGDHLLEQYQTLREIRRAIGDAAMQDGLLVLHYGLVVSPLKIT
As for B4, the “Z score of condensed fraction” value stood at 0.4702.

B5: MAD (protein, UniProt Q05195 1-221, looked up)
Max dimerization protein 1: MAAAVRMNIQMLLEAADYLERREREAEHGYASMLPYNNKDRDALKRRNKSKKNNSSSRSTHNEMEKNRRAHLRLCLEKLKGLVPLGPESSRHTTLSLLTKAKLHIKKLEDCDRKAVHQIDQLQREQRHLKRQLEKLGIERIRMDSIGSTVSSERSDSDREEIDVDVESTDYLTGDLDWSSSSVSDSDERGSMQSLGSDEGYSSTSIKRIKLQDSHKACLGL
Regarding B5, the “Z score of condensed fraction” value was determined as 0.4682.

B6: MAGED1 (protein, UniProt Q9Y5V3 1-778, looked up)
Melanoma-associated antigen D1: MAQKMDCGAGLLGFQAEASVEDSALLMQTLMEAIQISEAPPTNQATAAASPQSSQPPTANEMADIQVSAAAARPKSAFKVQNATTKGPNGVYDFSQAHNAKDVPNTQPKAAFKSQNATPKGPNAAYDFSQAATTGELAANKSEMAFKAQNATTKVGPNATYNFSQSLNANDLANSRPKTPFKAWNDTTKAPTADTQTQNVNQAKMATSQADIETDPGISEPDGATAQTSADGSQAQNLESRTIIRGKRTRKINNLNVEENSSGDQRRAPLAAGTWRSAPVPVTTQNPPGAPPNVLWQTPLAWQNPSGWQNQTARQTPPARQSPPARQTPPAWQNPVAWQNPVIWPNPVIWQNPVIWPNPIVWPGPVVWPNPLAWQNPPGWQTPPGWQTPPGWQGPPDWQGPPDWPLPPDWPLPPDWPLPTDWPLPPDWIPADWPIPPDWQNLRPSPNLRPSPNSRASQNPGAAQPRDVALLQERANKLVKYLMLKDYTKVPIKRSEMLRDIIREYTDVYPEIIERACFVLEKKFGIQLKEIDKEEHLYILISTPESLAGILGTTKDTPKLGLLLVILGVIFMNGNRASEAVLWEALRKMGLRPGVRHPLLGDLRKLLTYEFVKQKYLDYRRVPNSNPPEYEFLWGLRSYHETSKMKVLRFIAEVQKRDPRDWTAQFMEAADEALDALDAAAAEAEARAEARTRMGIGDEAVSGPWSWDDIEFELLTWDEEGDFGDPWSRIPFTFWARYHQNARSRFPQTFAGPIIGPGGTASANFAANFGAIGFFWVE
As to B6, the “Z score of condensed fraction” value is on record as -0.7984.

B7: MAEL (protein, UniProt Q96JY0 1-434, looked up)
Protein maelstrom homolog: MPNRKASRNAYYFFVQEKIPELRRRGLPVARVADAIPYCSSDWALLREEEKEKYAEMAREWRAAQGKDPGPSEKQKPVFTPLRRPGMLVPKQNVSPPDMSALSLKGDQALLGGIFYFLNIFSHGELPPHCEQRFLPCEIGCVKYSLQEGIMADFHSFINPGEIPRGFRFHCQAASDSSHKIPISNFERGHNQATVLQNLYRFIHPNPGNWPPIYCKSDDRTRVNWCLKHMAKASEIRQDLQLLTVEDLVVGIYQQKFLKEPSKTWIRSLLDVAMWDYSSNTRCKWHEENDILFCALAVCKKIAYCISNSLATLFGIQLTEAHVPLQDYEASNSVTPKMVVLDAGRYQKLRVGSSGFSHFNSSNEEQRSNTPIGDYPSRAKISGQNSSVRGRGITRLLESISNSSSNIHKFSNCDTSLSPYMSQKDGYKSFSSLS
Regarding B7, the “Z score of condensed fraction” value is -0.816.

B8: ASCL3 (protein, UniProt Q9NQ33 1-181, looked up)
Achaete-scute homolog 3: MMDNRGNSSLPDKLPIFPDSARLPLTRSFYLEPMVTFHVHPEAPVSSPYSEELPRLPFPSDSLILGNYSEPCPFSFPMPYPNYRGCEYSYGPAFTRKRNERERQRVKCVNEGYAQLRHHLPEEYLEKRLSKVETLRAAIKYINYLQSLLYPDKAETKNNPGKVSSMIATTSHHADPMFRIV
With B8, the “Z score of condensed fraction” value amounted to 0.02457.

B9: MDFI (protein, UniProt Q99750 1-246, looked up)
MyoD family inhibitor: MYQVSGQRPSGCDAPYGAPSAAPGPAQTLSLLPGLEVVTGSTHPAEAAPEEGSLEEAATPMPQGNGPGIPQGLDSTDLDVPTEAVTCQPQGNPLGCTPLLPNDSGHPSELGGTRRAGNGALGGPKAHRKLQTHPSLASQGSKKSKSSSKSTTSQIPLQAQEDCCVHCILSCLFCEFLTLCNIVLDCATCGSCSSEDSCLCCCCCGSGECADCDLPCDLDCGILDACCESADCLEICMECCGLCFSS
With B9, the “Z score of condensed fraction” value is given as 0.558.

B10: MADH1 (protein, UniProt Q15797 1-465, looked up)
Mothers against …: MNVTSLFSFTSPAVKRLLGWKQGDEEEKWAEKAVDALVKKLKKKKGAMEELEKALSCPGQPSNCVTIPRSLDGRLQVSHRKGLPHVIYCRVWRWPDLQSHHELKPLECCEFPFGSKQKEVCINPYHYKRVESPVLPPVLVPRHSEYNPQHSLLAQFRNLGQNEPHMPLNATFPDSFQQPNSHPFPHSPNSSYPNSPGSSSSTYPHSPTSSDPGSPFQMPADTPPPAYLPPEDPMTQDGSQPMDTNMMAPPLPSEINRGDVQAVAYEEPKHWCSIVYYELNNRVGEAFHASSTSVLVDGFTDPSNNKNRFCLGLLSNVNRNSTIENTRRHIGKGVHLYYVGGEVYAECLSDSSIFVQSRNCNYHHGFHPTTVCKIPSGCSLKIFNNQEFAQLLAQSVNHGFETVYELTKMCTIRMSFVKGWGAEYHRQDVTSTPCWIEIHLHGPLQWLDKVLTQMGSPHNPISSVS
As to B10, the “Z score of condensed fraction” value is recorded as -0.2284.

B11: MADH4 (protein, UniProt Q13485 1-552, looked up)
Mothers against …: MDNMSITNTPTSNDACLSIVHSLMCHRQGGESETFAKRAIESLVKKLKEKKDELDSLITAITTNGAHPSKCVTIQRTLDGRLQVAGRKGFPHVIYARLWRWPDLHKNELKHVKYCQYAFDLKCDSVCVNPYHYERVVSPGIDLSGLTLQSNAPSSMMVKDEYVHDFEGQPSLSTEGHSIQTIQHPPSNRASTETYSTPALLAPSESNATSTANFPNIPVASTSQPASILGGSHSEGLLQIASGPQPGQQQNGFTGQPATYHHNSTTTWTGSRTAPYTPNLPHHQNGHLQHHPPMPPHPGHYWPVHNELAFQPPISNHPAPEYWCSIAYFEMDVQVGETFKVPSSCPIVTVDGYVDPSGGDRFCLGQLSNVHRTEAIERARLHIGKGVQLECKGEGDVWVRCLSDHAVFVQSYYLDREAGRAPGDAVHKIYPSAYIKVFDLRQCHRQMQQQAATAQAAAAAQAAAVAGNIPGPGSVGGIAPAISLSAAAGIGVDDLRRLCILRMSFVKGWGPDYPRQSIKETPCWIEIHLHRALQLLDEVLHTMPIADPQPLD
As to B11, the “Z score of condensed fraction” value is recorded as -0.6861.

B12: MAD3 (protein, UniProt Q9BW11 1-206, looked up)
Max dimerization protein 3: MEPLASNIQVLLQAAEFLERREREAEHGYASLCPHRSPGPIHRRKKRPPQAPGAQDSGRSVHNELEKRRRAQLKRCLERLKQQMPLGADCARYTTLSLLRRARMHIQKLEDQEQRARQLKERLRSKQQSLQRQLEQLRGLAGAAERERLRADSLDSSGLSSERSDSDQEELEVDVESLVFGGEAELLRGFVAGQEHSYSHGGGAWL
With B12, the “Z score of condensed fraction” value is reported as -1.116.

B13: MDM4 (protein, UniProt O15151 1-490, looked up)
Protein Mdm4: MTSFSTSAQCSTSDSACRISPGQINQVRPKLPLLKILHAAGAQGEMFTVKEVMHYLGQYIMVKQLYDQQEQHMVYCGGDLLGELLGRQSFSVKDPSPLYDMLRKNLVTLATATTDAAQTLALAQDHSMDIPSQDQLKQSAEESSTSRKRTTEDDIPTLPTSEHKCIHSREDEDLIENLAQDETSRLDLGFEEWDVAGLPWWFLGNLRSNYTPRSNGSTDLQTNQDVGTAIVSDTTDDLWFLNESVSEQLGVGIKVEAADTEQTSEEVGKVSDKKVIEVGKNDDLEDSKSLSDDTDVEVTSEDEWQCTECKKFNSPSKRYCFRCWALRKDWYSDCSKLTHSLSTSDITAIPEKENEGNDVPDCRRTISAPVVRPKDAYIKKENSKLFDPCNSVEFLDLAHSSESQETISSMGEQLDNLSEQRTDTENMEDCQNLLKPCSLCEKRPRDGNIIHGRTGHLVTCFHCARRLKKAGASCPICKKEIQLVIKVFIA
Consider B13, for which the “Z score of condensed fraction” value is listed as 2.3.

Values taken from paper PMC11574045, “A cofactor-induced repressive type of transcription factor condensation can be induced by synthetic peptides to suppress tumorigenesis” (The EMBO Journal, 2024).
